Experimental data: publication PMC3572039

Target: T1, MBP-Δ116 (truncated XydR response regulator) del1-116 (Clostridium cellulolyticum H10 (ATCC 35319/DSM 5812)) (UniProt B8I0K9)
T1 sequence: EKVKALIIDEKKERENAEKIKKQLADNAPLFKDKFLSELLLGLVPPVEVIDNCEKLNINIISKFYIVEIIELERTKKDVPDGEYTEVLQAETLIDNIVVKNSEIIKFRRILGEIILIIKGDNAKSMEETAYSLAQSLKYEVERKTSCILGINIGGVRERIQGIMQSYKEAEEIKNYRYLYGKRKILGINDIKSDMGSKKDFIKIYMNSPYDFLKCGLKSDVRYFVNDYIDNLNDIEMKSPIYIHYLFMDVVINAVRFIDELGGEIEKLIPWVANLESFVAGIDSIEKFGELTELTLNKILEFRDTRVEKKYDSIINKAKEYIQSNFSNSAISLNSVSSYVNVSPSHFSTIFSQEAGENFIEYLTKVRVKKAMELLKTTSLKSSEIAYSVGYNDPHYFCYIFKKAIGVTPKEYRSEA
Assay: EMSA
Conditions: 10 mM Tris pH 7.5, 150 mM KCl, 1 mM DTT, 30 ng/uL salmon sperm DNA, 0.1 ug/uL BSA, 0.05% NP-40, 2.5% glycerol, 20 C, 20 min; 20 fmol probe; 5% native PAGE

CCTTCTTAATCAGTTTCTAATTGCCAAAGAATAAGAGTAAAATGATTAGTAAATCTATATTCATTATAGAATGTAAACTGTTTCCAGCTCAATATAAATCCTTTTGACTTTTGTATATTAATTTTGTAAAATATCATTTTCAGTGTATTGGAGCAACATAAAAAAAGCAGCTGTAGAAAATCCAGCTGCTTTATACTTGCTATTTGTACAATTTTAGAATTACTTGTTAATACCTTATTCCGCAGC (double strand) [R6 (upstream Ccel_1656)]
binding: binds

GTATATAAGGTATTGACTTTCTTTGGCAGATGTAAGAATAGGAGTAAAATGAAAAGAACGATTAGTACATATTAACTATGTTAAAAATATTATAGAATGTAAATGGTTTCCATTTCAATATAAATCTTTTTGGTATTGGTATAAATTTTTGAATTCATTTTATCATATTTTGAAAAATTAGTAAATTATTTATTTTATTTTACACTTTTGTATATATTTTTTTAAATTTGTTAAGATATATTTTGCTATGCTTCACTCCTATACTCCTTTGG (double strand) [R3 (upstream Ccel_1229)]
binding: binds
